Measured values: the supplement of paper PMC7125110
± gives the standard error. Fewer inactive variants are shown than the library holds.

B1: glmS ribozyme (parent)
chain: AUAAAAGCGCCAGAACUACAGAAAUGUAGUUGACGAGGAGGAGGUUUAUCGAAUUUUCGGCGGAUGCCUCCAAA

Variants of: B1
Experiment: self-cleavage kobs at 2500 uM GlcN6P; higher = faster cleavage; RNA array
Details: with glucosamine-6-phosphate
How it was run: (§1)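 Glucosamine-6-phosphate (40 μM to 10 mM) in HEPES/KCl/Mg(OAc)2 buffer was flowed over sequenced MiSeq chips, and tiles were imaged over ~14 h. Barcoded ribozyme variants there had been transcribed in situ by E. coli RNA polymerase and were tracked through a hybridised Cy3 probe at 37 °C. One- or two-exponential decay fits to per-tile medians, normalised to baseline and to non-cleaving reference variants, gave kobs. kcat and KM came from weighted Michaelis–Menten fits across concentrations.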
In the case of AUAAAAGCCCGAGAACUACAGAAAUGUAGUUGACGAGGAGGAGGUUUAUCGAAUUUUCGGCGGAUGCCUCUAAA [G9C C11G C71U], the “self-cleavage kobs at 2500 uM GlcN6P” value is reported as under 1e-05 s⁻¹.
In the case of AUAAAAGCGCCAGAACUACAGAAAUGUAGUUGACGAGAUGGAGGUUUAUCGAAUUUUCGGCGGCUGCCUCCAAA [G38A A39U A64C], the “self-cleavage kobs at 2500 uM GlcN6P” value is reported as under 1e-05 s⁻¹.
With AUAAAAACGCCAGAACUACAGAAAUGUAGUCGACGAGGGGGAGGUUUAUCGUAUUUUCGGCGGAUGCCUCCAAA [G7A U31C A39G A52U] the “self-cleavage kobs at 2500 uM GlcN6P” value was under 1e-05 s⁻¹.
With AUAAAAGCGCCAGAACUACAGAAAUGUAGUUGGCGGGUAGGAGGUUUAUCGAAUUUUCGGUGGAUGCCUCAAAA [A33G A36G G38U C61U C71A] the “self-cleavage kobs at 2500 uM GlcN6P” value was under 1e-05 s⁻¹.
AUAAAAGCGCCAAAACUACAGAAAUGUAGUUGACGUGGAAGAGGUUUAUCGAAUUUUCGGCGGAUGCCUCCAAA [G13A A36U G40A] was tested, and the “self-cleavage kobs at 2500 uM GlcN6P” value was under 1e-05 s⁻¹.
For AUAAAAGCGCCAGAACUACAGAAAUGUAGUUGACGAUGUGGAGCUUUAUGGAAUUUUCGGCGGAUGCCUUCAAA [G37U A39U G44C C50G C70U], the “self-cleavage kobs at 2500 uM GlcN6P” value was under 1e-05 s⁻¹.
For AUAAAAGCGCCAGAACUACAGAAAUGUAGUUGAAGUGGAGGAGGUUUAUCGGAUUUUCGGCGGAUGCCUCCAAA [C34A A36U A52G], the “self-cleavage kobs at 2500 uM GlcN6P” value was under 1e-05 s⁻¹.
In the case of AUAAAAGCGCCAGAACUACAGAAAUGUAGUGAACGAGGAGGAGGUUUAUCGAAUUGUCGGCGGAUGCCUCCAAA [U31G G32A U56G], the “self-cleavage kobs at 2500 uM GlcN6P” value is reported as 9.1e-05 ± 2.5e-05 s⁻¹.
With AUAAAAGCGCCAGAACUACAGAAAUGUAGUUGACGAGGCGGAGCUUUAUCGAAUUUUCGGCGGAUGACUCCAAA [A39C G44C C67A] the “self-cleavage kobs at 2500 uM GlcN6P” value was 0.000176 ± 4.5e-05 s⁻¹.
In the case of AUAAAAGCGUCUGAACUACAGAAAUGUAGUUGACGAGGAGGGGGUUUAUCGAAUUUUCGGCGGAUGCCUCCAAA [C10U A12U A42G], the “self-cleavage kobs at 2500 uM GlcN6P” value is reported as 0.000153 ± 5.7e-05 s⁻¹.
With AUAAAAGCGCCAGAACUACAGAAAUGUAGGUGACGAGGAGGAGGUUUAUCGACAUUUCGGCGGAUGCCUCCAAA [U30G A53C U54A] the “self-cleavage kobs at 2500 uM GlcN6P” value was 0.000695 ± 0.00017 s⁻¹.
AUAAAAGCGCCAGAACUACAGAAAUGUAGUUGGCGAGGAGGAGGUUUAUCGAAUUCUCGACGGAUGCCUCCAAA [A33G U56C G60A] was tested, and the “self-cleavage kobs at 2500 uM GlcN6P” value was under 1e-05 s⁻¹.
AUAAAAGCGUCAGAACUACAGAAAUGUACUUGACGAGGAGGAGGUUUAUCGAAUUUUCGGCCGAUGCCUCCAAA [C10U G29C G62C] was tested, and the “self-cleavage kobs at 2500 uM GlcN6P” value was under 1e-05 s⁻¹.
With AUAAAAGAGCCAGAACUACAGAAAUGUAGUUGACGAGGAGGAGGUUUAUCGAAUUUUCGGGGGGUGCCUCCAAA [C8A C61G A64G] the “self-cleavage kobs at 2500 uM GlcN6P” value was under 1e-05 s⁻¹.
AUAAAAGCGCCUGAACUACAGAAAUGUAGUUGACGAGGUAGAGGUUUAUCGAAUUUUCGGCGGAUGCCUCCAAA [A12U A39U G40A] was tested, and the “self-cleavage kobs at 2500 uM GlcN6P” value was 0.00415 ± 0.0015 s⁻¹.
With AUAAAAGCGCCAGAACUACAGAAAUGUAGUUGAAGAGGACGAGGUCAAUCGAAUUUUCCGCGGAUGCCUCCAAA [C34A G40C U46C U47A G59C] the “self-cleavage kobs at 2500 uM GlcN6P” value was under 1e-05 s⁻¹.
AUAAAAGCGACAGAACUACAGAAAUGUAGUUGACGAAGAGGAGGUUUAUCGACUUUUCGGCGGAUGCCUCCAAA [C10A G37A A53C] was tested, and the “self-cleavage kobs at 2500 uM GlcN6P” value was under 1e-05 s⁻¹.
With AUAAAAGCGUCAUAACUACAGAAAUGUAGUUGACGAGGAGGAGGUUUAUCGAAUUUUCGGCGGCUGCCUCCAAA [C10U G13U A64C] the “self-cleavage kobs at 2500 uM GlcN6P” value was under 1e-05 s⁻¹.
AUAAAAUCGCCAGAACUACAGAAAUGUAGUUGACGAGGAGGAGGUUUAUCGGAUUUUCGCCGGAUGGCUCCAAA [G7U A52G G60C C67G] was tested, and the “self-cleavage kobs at 2500 uM GlcN6P” value was under 1e-05 s⁻¹.
For AUAAAAGCGCUAGAACUACAGAAAUGUAGUUGACGAGGAGGAGGUUUACCGAAUUGUCGGCGGAUGCCUCCAAA [C11U U49C U56G], the “self-cleavage kobs at 2500 uM GlcN6P” value was under 1e-05 s⁻¹.
With AUAAAAGCGCCAGCACUACAGAAAUGUAGUUGGCCAGCAGGAGAUUUUUUGAAUUUUCGGCGGAUGCCUCCAAA [A14C A33G G35C G38C G44A A48U C50U] the “self-cleavage kobs at 2500 uM GlcN6P” value was under 1e-05 s⁻¹.
AUAAAAGCGCCCGAGCUACAGAAAUGUAGUUGACGAGGAGGACGUUUAUCGAAUUUUCGGCGGAUGCCUCCAAA [A12C A15G G43C] was tested, and the “self-cleavage kobs at 2500 uM GlcN6P” value was under 1e-05 s⁻¹.
In the case of AUAAAAGCGCCAGAACUACAGAAAUGUAGUUGACGAGGAGGAGGGUUAUCGAAUUUUCGACGGAUGGUUCCAAA [U45G G60A C67G C68U], the “self-cleavage kobs at 2500 uM GlcN6P” value is reported as under 1e-05 s⁻¹.
For AUAAAAGCGCCAGAACUACAGAAAUGUAGUUGACGAGGAGGAGGAUAAUCGAAUUUUCUGAGGAUGCCUCCAAA [U45A U47A G59U C61A], the “self-cleavage kobs at 2500 uM GlcN6P” value was under 1e-05 s⁻¹.
With AUAAAAGCGCCAGAACUACAGAAAUUUAGUUGACGAGGAGGAGGUUUAUCGAAUUUUCGGCGGAUUCCUCCAAA [G26U G66U] the “self-cleavage kobs at 2500 uM GlcN6P” value was 0.000774 ± 0.00023 s⁻¹.
For AUAAAAGCGCCAGAACUACAGAAAUGUAGUUGACGUGGAGGAGGUUUUUCGAAUUCUCGGCGGAUGCCUCCAAA [A36U A48U U56C], the “self-cleavage kobs at 2500 uM GlcN6P” value was under 1e-05 s⁻¹.
AUAAAAGCGCCAGAACUACAGAAAUGUAGUUGACGACGAGCAGGUUCAUCGAAUUUUCUGCGGAUGCCUCCAAA [G37C G41C U47C G59U] was tested, and the “self-cleavage kobs at 2500 uM GlcN6P” value was under 1e-05 s⁻¹.
AUAAAAGCGCCAGAACUACAGAAAUGUAGUUGACGACGAGGAGGUUUAUCGAAUUUUCGCCGGAUGCGUCCAAA [G37C G60C C68G] was tested, and the “self-cleavage kobs at 2500 uM GlcN6P” value was under 1e-05 s⁻¹.
For AUAAAAGCGCCAGAACUACAGAAAUGUAGUUUACGAGGACGGGGUUUAUCGAAUUUUCGGCGGAUGCCUCCAAA [G32U G40C A42G], the “self-cleavage kobs at 2500 uM GlcN6P” value was 7.39e-05 ± 1.8e-05 s⁻¹.
In the case of AUAAAAGUGCCAGAACUACAGAAAUGUAGUUGACGUGGAGGAGGUUUAUUGAAUUUUCGGCGGAUGCCUCCAAA [C8U A36U C50U], the “self-cleavage kobs at 2500 uM GlcN6P” value is reported as under 1e-05 s⁻¹.
With AUAAAAGCGCCAGAACUACAGAAAUGUAGUUGACCAGGAGGAGGUUUAUCGAGUUUUCGGCGGAUGCCUCUAAA [G35C A53G C71U] the “self-cleavage kobs at 2500 uM GlcN6P” value was under 1e-05 s⁻¹.
In the case of AUAAAAGCGCCAGAUCUACAGAAAUGUAGUUGACGAGGAGGAGGAUUAUCGAAUUUUCGGCGGAGGCCUCCAAA [A15U U45A U65G], the “self-cleavage kobs at 2500 uM GlcN6P” value is reported as 0.00134 ± 0.00059 s⁻¹.
AUAAAAGAGCCAGACCUACAGAAAUGUAGUUAACGAGGAGGAGGUUUAUCGAAUUUUCGGCGGAUGCCUCCAAA [C8A A15C G32A] was tested, and the “self-cleavage kobs at 2500 uM GlcN6P” value was under 1e-05 s⁻¹.
With AUAAAAGCGCCAGAACUACAGAAAUGUAGUUGCCGAGGAGGAGGUUUACCGAAUUUUCGGCGGAUGCCUUCAAA [A33C U49C C70U] the “self-cleavage kobs at 2500 uM GlcN6P” value was under 1e-05 s⁻¹.

Variants of: B1
Experiment: self-cleavage kobs at 10000 uM GlcN6P; higher = faster cleavage; RNA array
Details: with glucosamine-6-phosphate
How it was run: as §1
With AUAAAAGCGCCAGAACUACAGAAAUGUAGUGAACGAGGAGGAGGUUUAUCGAAUUGUCGGCGGAUGCCUCCAAA [U31G G32A U56G] the “self-cleavage kobs at 10000 uM GlcN6P” value was 0.000522 ± 9.3e-05 s⁻¹.
AUAAAAGCGCCCGAGCUACAGAAAUGUAGUUGACGAGGAGGACGUUUAUCGAAUUUUCGGCGGAUGCCUCCAAA [A12C A15G G43C] was tested, and the “self-cleavage kobs at 10000 uM GlcN6P” value was under 1e-05 s⁻¹.
With AUAAAAGCGCCAGAACUACAGAAAUGUAGUUGACCAGGAGGAGGUUUAUCGAGUUUUCGGCGGAUGCCUCUAAA [G35C A53G C71U] the “self-cleavage kobs at 10000 uM GlcN6P” value was under 1e-05 s⁻¹.
